# In patent US20240158538A1:
# Target: VISTA (analyte in the BLI assay with VSIG-3) (Homo sapiens (Human)) (UniProt Q9H7M9)
# Assay: BLI (Octet QK384), 100 nM Fc-tagged VSIG-3 on anti-human Fc biosensor, VISTA from 3000 nM in solution
substance,measurement,value
Fc-tagged VSIG-3 (from UniProt Q5DX21 23-241) (Fc fusion),Kd,5.28 µM
